Source: US20030092067A1

Legend:
[1] = biological target: Abz-Val-(NMe)Ala-Nle-Ser-Tyr(NO2)-ASP-NH2
[2] = biological target: Abz-Lys-Ala-hLeu-Ser-Tyr(NO2)-Asp-NH2
[3] = biological target: Abz-Val-Lys-hLeu-Ser-Tyr(NO2)-Asp-NH2
[4] = biological target: Abz-Bip-Ala-hLeu-Thr-Tyr(NO2)-Asp-NH2
[5] = biological target: Bz-Val-Ala-Nle-Ser-Tyr(NO2)-NH2
[6] = biological target: Abz-Gln-Ala-hLeu-Ser-Tyr(NO2)-Asp-NH2
[7] = biological target: Abz-ACH-Ala-hLeu-Ser-Tyr(NO2)-Asp-NH2
[8] = biological target: Abz-Val-ACH-hLeu-Ser-Tyr(NO2)-Asp-NH2
[9] = biological target: Abz-Val-Ala-His-Ser-Tyr(NO2)-Aso-NH2
[10] = biological target: Abz-Bip-Val-Ala-Nle-Ser-Tyr(NO2)-Asp-NH2
[11] = biological target: Abz-Glu-Val-Ala-Nle-Ser-Tyr(NO2)-Asp-NH2
[12] = biological target: Abz-Val-Ala-ACP-Ser-Tyr(NO2)-Asp-NH2
[13] = biological target: Abz-Val-Aib-Nle-Ser-Tyr(NO2)-Asp-NH2
[14] = biological target: Abz-Met(O)-Ala-hLeu-Ser-Tyr(NO2)-Asp-NH2
[15] = biological target: Abz-Val-Ala-Thr-Ser-Tyr(NO2)-Asp-NH2
[16] = biological target: Abz-Ala-Nle-Ser-Tyr(NO2)-Asp-NH2
[17] = biological target: Abz-Val-Cha-hLeu-Ser-Tyr(NO2)-Asp-NH2
[18] = biological target: Abz-3.Pyr-Val-Ala-Nle-Ser-Tyr(NO2)-Asp-NH2
[19] = biological target: Abz-Val-2Nal-hLeu-Ser-Tyr(NO2)-Asp-NH2
[20] = biological target: Abz-Val-Ala-Nle-Ser-Lys-Asp-NH2
[21] = biological target: Abz-Bip-Ala-hLeu-Met(O)-Tyr(NO2)-Asp-NH2
[22] = biological target: Abz-Val-Ala-3pyr-Ser-Tyr(NO2)-Asp-NH2
[23] = biological target: Abz-Bip-Ala-hLeu-Leu-Tyr(NO2)-Asp-NH2
[24] = biological target: Piv-Val-Ala-Nle-Ser-Tyr(NO2)-NH2
[25] = biological target: Abz-DVal-Ala-hLeu-Ser-Tyr(NO2)-Asp-NH2
[26] = biological target: Abz-Bip-Ala-hLeu-Ser-Tyr(NO2)-Asp-NH2
[27] = biological target: Abz-Leu-Ala-hLeu-Ser-Tyr(NO2)-Asp-NH2
[28] = biological target: Bz(2-carboxy)-Val-Ala-Nle-Ser-Tyr(NO2)-NH2
[29] = biological target: Abz-Val-Ala-Nle-Ser-Phe-Asp-NH2
[30] = biological target: Bz-Val-Ala-Nle-Ser-Tyr(NO2)-NH2 (second printing, row r51)
[31] = biological target: Abz-Val-DLys-hLeu-Ser-Tyr(NO2)-Asp-NH2
[32] = biological target: Abz-Bip-Ala-hLeu-Cha-Tyr(NO2)-Asp-NH2
[33] = biological target: nBu-D.Ser-D.Nle-D.Ala-D.Val-p.Aba-NH2
[34] = biological target: Abz-Deg-Ala-Nle-Ser-Tyr(NO2)-Asp-NH2
[35] = biological target: Abz-Val-Met(O)-hLeu-Ser-Tyr(NO2)-Asp-NH2
[36] = biological target: Abz-Bip-Ala-hLeu-Lys-Tyr(NO2)-Asp-NH2
[37] = biological target: Abz-Val-Ala-Nle-Ser-Tyr-Asp-NH2
[38] = biological target: Abz-Val-Ala-Gln-Ser-Tyr(NO2)-Asp-NH2
[39] = biological target: Abz-Tic-Ala-hLeu-Ser-Tyr(NO2)-Asp-NH2
[40] = biological target: Abz-Val-Ala-Nle-Ser-Ala-Asp-NH2
[41] = biological target: Ac-Val-Ala-Nie-Ser-Tyr(NO2)-Asp-NH2

B1: Der pI (protein)
chain: TNACSINGNAPAEIDLRQMRTVTPIRMQGGCGSCWAFSGVAATESAYLAYRNQSLDLAEQELVDCASQHGCHGDTIPRGIEYIQHNGVVQESYYRYVAREQSCRRPNAQRFGISNYCQIYPPNVNKIREALAQTHSAIAVIIGIKDLDAFRHYDGRTIIQRDNGYQPNYHAVNIVGYSNAQGVDYWIVRNSWDTNWGDNGYGYFAANIDLMMIEEYPYVVIL
- Measured Km (µM) [1]: NS
- Measured Km [2]: > 15 µM
- Measured Km [3]: 35 µM
- Measured Km [4]: 2.5 µM
- Measured Km (µM) [5]: NM^a
- cleavage rate (rank order) [5]: Bz>n-But>Piv>Bz(2-carboxy)>Abz
- Measured Km [6]: 12 µM
- Measured Km (µM) [7]: NS
- Measured Km (µM) [8]: NS
- Measured Km [9]: > 20 µM
- Measured Km [10]: 10 µM
- Measured Km [11]: 20 µM
- Measured Km (µM) [12]: NS
- Measured Km (µM) [13]: NS
- Measured Km [14]: 20 µM
- Measured Km [15]: 6 µM
- Measured Km (µM) [16]: NM
- Measured Km (µM) [17]: NS
- Measured Km (µM) [18]: NM
- Measured Km (µM) [19]: NS
- Measured Km (µM) [20]: NM
- Measured Km [21]: 5 µM
- Measured Km [22]: 10 µM
- Measured Km [23]: 3.7 µM
- Measured Km (µM) [24]: NM^a
- cleavage rate (rank order) [24]: Bz>n-But>Piv>Bz(2-carboxy)>Abz
- Measured Km (µM) [25]: NS
- Measured Km [26]: 2.5 µM
- Measured Km [27]: 18 µM
- Measured Km (µM) [28]: NM^a
- cleavage rate (rank order) [28]: Bz>n-But>Piv>Bz(2-carboxy)>Abz
- Measured Km (µM) [29]: NM
- Measured Km (µM) [30]: NM^a
- Measured Km (µM) [31]: NS
- Measured Km [32]: 2.5 µM
- Measured Km (µM) [33]: NS
- Measured Km (µM) [34]: NS
- Measured Km [35]: 35 µM
- Measured Km [36]: 2 µM
- Measured Km (µM) [37]: NM
- Measured Km [38]: 6 µM
- Measured Km (µM) [39]: NS
- Measured Km (µM) [40]: NM
- Measured Km (µM) [41]: NS
